Article PMC12557302

Target: CD36 on human monocytes / monocyte membrane extract (Homo sapiens, UniProt P16671 1-472)
Assay: pull-down with mass spectrometry

CD36 on human monocytes / monocyte membrane extract, sequence (P16671 whole entry): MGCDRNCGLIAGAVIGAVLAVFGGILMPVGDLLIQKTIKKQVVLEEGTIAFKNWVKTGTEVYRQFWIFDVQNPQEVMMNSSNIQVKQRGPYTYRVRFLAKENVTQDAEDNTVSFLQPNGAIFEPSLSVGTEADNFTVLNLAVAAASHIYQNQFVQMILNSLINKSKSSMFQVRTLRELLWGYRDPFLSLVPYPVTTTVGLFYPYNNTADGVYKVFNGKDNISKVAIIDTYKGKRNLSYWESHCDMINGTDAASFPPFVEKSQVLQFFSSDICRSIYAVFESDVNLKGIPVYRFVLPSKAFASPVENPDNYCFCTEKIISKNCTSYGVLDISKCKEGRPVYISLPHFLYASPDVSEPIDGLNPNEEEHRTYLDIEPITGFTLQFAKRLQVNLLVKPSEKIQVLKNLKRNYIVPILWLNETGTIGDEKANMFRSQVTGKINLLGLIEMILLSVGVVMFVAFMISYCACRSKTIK

B1: CD36Apt (Mono.A2) (ssDNA)
DNA: ATCCAGAGTGACGCAGCAGAAGAGTAGATGAAACGTTTTTTCGCCCGATAAAAGGGACGTGCGTCAGACATGGACACGGTGGCTTAGT
B1: binds.
